# Experimental data from the RNAGym collection of RNA variant scans (doi:10.1073/pnas.2313332121).
# Variants at the floor of the assay were thinned out.
# B1: TPR 5TU (parent)
# chain: GGAUCUUCUCGAUCUAACAAAAAAGACAAAUCUGCCACAAAGCUUGAGAGCAUCUUCGGAUGCAGAGGCGGCAGCCUUCGGUGGCGCGAUAGCGCCAACGUUCUCAACUAUGACACGCAAAACGCGUGCUCCGUUGAAUGGAGUUUAUCAUG
# Variants of: B1
# Experiment: polymerase ribozyme fitness, log enrichment relative to wild type (log ratio); higher = more active; in vitro selection for triplet polymerase activity
# Method in brief: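 Mutant libraries of both subunits of a heterodimeric triplet polymerase ribozyme were PCR-built, transcribed, and selected once in triplicate, with frozen incubation at −7 °C and capture of gel-excised extended constructs on streptavidin beads before RT-PCR. Illumina sequencing of input and output libraries was filtered to genotypes with ≥10 input reads and ≥1 read per output. Fitness is the logarithm of genotype enrichment over wild-type enrichment, using inverse-variance-weighted replicate averages. The logarithm is base 2.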
row,Variant,polymerase ribozyme fitness (log ratio)
1,A39U U56A C116U,-2.74
2,C38U G68U G94A,≤ -4.2
3,A40C A52C U53A A73U C76A G83C U102A,≤ -4.2
4,A41C U55G G81A C85U,-0.432
5,A41G G58A U82G U144A U145C,0.156
6,A40C G50A A91G A147C U151A,≤ -4.2
7,A40C G48A,-1.28
8,A40U C54G C118A,-1.63
9,A41G U45C C57U G92A C108G,-3.34
10,A40U U44A C57U C76G A91U U134C G136C,≤ -4.2
11,A39C A49U G67A A121U,≤ -4.2
12,A39U U56A G62C C85A C95G U101A C123G G143C,≤ -4.2
13,A41C G84A U109G,-3.33
14,A39U U55G G67C G86U A115C,≤ -4.2
15,A41C U56A G83U U127C G152A,-4.07
16,A40G U56A G84A A91C C95G G100U,≤ -4.2
17,A39U A60U G84U,-3.96
18,C38U U56A G68A C95A,≤ -4.2
19,A39G U53C U77G A113C C116A,≤ -4.2
20,A39U A73G,-2.4
21,A40C C54U A64U U78A G88C A150G,≤ -4.2
22,A40C A150C,-3.94
23,A41C C85U G112C,-3.5
24,A39G U55A A91C C108A U144C,≤ -4.2

row,Variant,polymerase ribozyme fitness (log ratio)
1,A41G G86C,-3.28
2,A40U G152A,-2.57
3,A39U C93U U144C,-3.54
4,A41C G92U C103U C123G,-1.2
5,A40C A60U G81C A138G C149A,≤ -4.2
6,A41C A150U,0.683
7,A39C C63A A119C,-4.05
8,A41C U53C A122C C123A G141U U144G,-3.18
9,A40U G84U G136U,-3.66
10,A41G A52G C69U C93U G94C U146C,-2.71
11,A39U C54U C76A A91C U139G,≤ -4.2
12,A41G C57U U109G A122U,-2.07
13,A40G A41G C63U C76A G83C G152U,≤ -4.2
14,A41C G59A C69A G84A A107U A137U,≤ -4.2
15,A39C A49U C69U C85A C105U,≤ -4.2
16,A40U U45G,-0.54
17,A39C C108U,-3.8
18,A40C A106U A138G,≤ -4.2
19,A40C U45A G48A A49C U55A G62C U77A C118A U134C A142G,≤ -4.2
20,C38U G84U C123U,-0.916
21,A41C A52C C114U,-3.97
22,A39G U145A,-1.85
23,A40U U104C C108A,≤ -4.2
24,A41C U151G,-3.63

row,Variant,polymerase ribozyme fitness (log ratio)
1,A41C U82A C125A,-0.821
2,A41C G92U U145A A150C,-2.83
3,A39U A49U,-4.19
4,A39U C69U U82C C96U,-2.44
5,A39G G58A,-1.68
6,A40U A60U G70C C76U C96A,≤ -4.2
7,A40G U109G,-3.14
8,C38U U61A,-0.395
9,A39U C87U G133U U135G,≤ -4.2
10,A39U G94U A122U G143A A147C,≤ -4.2
11,A41G G65A,-0.45
12,A39U,-1.9
13,A39G,-1.53
14,A39C,-1.87
15,A39U A110G U148G,-4
16,A39C G50A G86A G94U G133A,≤ -4.2
17,A41C G81C U82C A97C,-0.593
18,A40C C87G C105G,-4.19
19,A40G G83U G92A C99G A107U,≤ -4.2
20,A40C U61A,-1.94
21,A40C U55A G86C A115C,-3.79
22,A40U G92U A119G,-0.619
23,A41G G50C,-1.47
24,A40G G58A,-0.952

row,Variant,polymerase ribozyme fitness (log ratio)
1,A39G U144C,-2.67
2,A41C G80U C95A,-1.46
3,A39U A52C C57U G58C,-3
4,A40C A138G U144G,-3.92
5,C38U G59U C79G,-3.85
6,A41C U53A C79A C108U A147C,≤ -4.2
7,A41C U53A,-1.22
8,A39C C76A U101G C114U C125G U145G,-3.83
9,A39C G48U G68C G80C C96U U101G A106U,≤ -4.2
10,A40G G84U A89U U104G,≤ -4.2
11,A41G G58U G59C,-0.488
12,A41C C54U G141C,-1.43
13,A40C G42A A52U G81C G84U A97C C118U,≤ -4.2
14,C38U G67A C69G G94A,≤ -4.2
15,A41G C63G G74A C75U G92U U144C,-3.87
16,C38U C85U U127A,-3.87
17,A40U U145A,-0.163
18,A39G C69G C93U C103G C108U C116U A137C,≤ -4.2
19,C38U C87U C103U,-0.308
20,A41C C93U,-1.61
21,A40U C93U,-0.794
22,A40U A113C,-3.79
23,A40U U90G C118G G133C U148G,≤ -4.2
24,A39U G80U,-3.44

row,Variant,polymerase ribozyme fitness (log ratio)
1,C38U U45G G68A G81U C87G A98G,≤ -4.2
2,A39C G80C C85U A89G C116G,≤ -4.2
3,A41C U53A G58A C63U G94A A107G,≤ -4.2
4,C38U G58C G80A C95A C114G,-3.62
5,A40U C54U G70C G117U G128C A137G,≤ -4.2
6,A41C A49C U77C G86C C96U U101G C118G,≤ -4.2
7,A41C G50A U55G U56A G65U G68A U102A G140U,≤ -4.2
8,A39G C54U G74A G88A U90A A137G,≤ -4.2
9,A39U A49G G58A G65A U111G A150G,≤ -4.2
10,A39U G50A G67U G71C G84A,≤ -4.2
11,A41C C123U G126A U135G,-3.4
12,A40U A52G G65A G70A G128U,≤ -4.2
13,A40G G86U A120G,-3.99
14,A39U A49U G59C C132U U148A,≤ -4.2
15,A41C C76G C96U,≤ -4.2
16,A39G C54G A106U,≤ -4.2
17,A39C G42U C43A G92U U127A A150G,-4.19
18,C38U U101A C103G A121U U144G,-3.85
19,A40G G71C G74U C93U A98G,≤ -4.2
20,A41G C103G,-1.94
21,A40G A41C,-1.36
22,A40C C69U A91U C96A A119G U134A A142U,≤ -4.2
23,A40C A60G G62U G68A A97U G141A A142G,≤ -4.2
24,C38U U55A C69G A115G A137G A142G,≤ -4.2

row,Variant,polymerase ribozyme fitness (log ratio)
1,A39C A66C G86U,≤ -4.2
2,A39U U61C,-4.04
3,A40C G62U A97G C116G A122U,-1.6
4,A39C G86A G152U,≤ -4.2
5,A40C C57G C85A U102A,≤ -4.2
6,A40C A52U C57U G92C C95U C105U A106C U109C A138G,≤ -4.2
7,A41C G81A G92U G136U,-3.13
8,A40C A89U A137C,-3.94
9,C38U G80U U134G A142C G152U,-3.64
10,A39U U55G G81U C103A,≤ -4.2
11,A40C C76A,-2.59
12,A41C C93G C105U,-2.84
13,A40G C51U U56A U78A G83C,≤ -4.2
14,A40U G48C A64U G83A G143A,≤ -4.2
15,A40C G59A C85A A89C,-2.83
16,A41C G42A G59C G68A C95U,≤ -4.2
17,A39C G88C C108G,≤ -4.2
18,A41C G50C G84A A119G,-3.83
19,A40G C57G G58A G117C A119U,-1.96
20,A40U A147G,-3.6
21,A39G U56A G58U G141A,-1.28
22,A40U G48C U53A U144G,-2.19
23,A40G G84C U109G A119U U139A G140U G152U,≤ -4.2
24,A41C A49C G92A A106C,≤ -4.2

row,Variant,polymerase ribozyme fitness (log ratio)
1,A40C G92U U135G,-2.96
2,A39G U53C A91U C95G,≤ -4.2
3,A41C G92A,-3.32
4,A39G U56A G94U A120U G141C,-3.09
5,C38U G86A A89C C95G G112C,≤ -4.2
6,A40G C75U C93U A97U,≤ -4.2
7,A41C G86U U90A C129A U130C G140U,≤ -4.2
8,A40C C51G U61A C95G,≤ -4.2
9,A39C U61A C87U G94U U101C A147U,≤ -4.2
10,A40U G126C,-0.388
11,A39C G83U,-2.83
12,A40U G117C,-0.102
13,C38U G62C,-2.41
14,A41G C54A U56G C57U G84U C99G U109C U146C,≤ -4.2
15,A40G C85A G133U,≤ -4.2
16,A39U G70A G88A U127A U144A,≤ -4.2
17,A41C U61G C79U G84C,≤ -4.2
18,A41C G58C G59C A113C U145A,-4.1
19,C38U U56A C63A G117C A121U,0.398
20,A40G C95U,-2.52
21,C38U G81U C108A U139G,≤ -4.2
22,A41C G46A U82A C116G,-3.58
23,A39C C96U,-2.7
